# Experimental data: the Human Domainome abundance scans (Beltran et al. 2025)
# ± gives the uncertainty stated by the source.
# B1: Transcriptional repressor p66-beta, residues 415 to 455; numbered along this chain, Q8WXI9 (parent)
# chain: VEPFVCAQCRTDFTPHWKQEKNGKILCEQCMTSNQKKALKA
# Variants of: B1
# Assay: abundance fitness (aPCA) (normalised: wild type 0, dead -1); higher = more abundant; growth selection in yeast, the domain comes from the species named
# Settings: Homo sapiens
row,Variant,abundance fitness
1,D12L,-0.198 ± 0.1
2,D12Q,-0.208 ± 0.1
3,D12V,0.312 ± 0.059
4,D12Y,-0.025 ± 0.13
5,D12K,-0.274 ± 0.2
6,D12P,-0.118 ± 0.086
7,D12A,0.064 ± 0.087
8,D12N,0.187 ± 0.15
9,D12T,-0.016 ± 0.092
10,D12F,-0.149 ± 0.2
11,D12H,0.081 ± 0.13
12,D12S,0.117 ± 0.086
13,D12E,0.032 ± 0.081
14,D12C,0.141 ± 0.14
15,A7H,0.534 ± 0.28
16,A7M,-0.165 ± 0.095
17,A7K,0.09 ± 0.11
18,A7V,0.363 ± 0.054
19,A7G,0.368 ± 0.053
20,A7S,0.523 ± 0.087
21,A7D,0.27 ± 0.096
22,A7R,0.075 ± 0.064
23,A7I,0.078 ± 0.11
24,A7T,0.208 ± 0.07

row,Variant,abundance fitness
1,A7Y,-0.309 ± 0.12
2,A7N,0.121 ± 0.13
3,A7P,-0.091 ± 0.1
4,A7E,0.188 ± 0.063
5,A7L,-0.158 ± 0.061
6,A7C,0.325 ± 0.089
7,A7F,0.068 ± 0.11
8,A7W,-0.223 ± 0.083
9,H16F,-0.005 ± 0.18
10,H16I,-0.073 ± 0.2
11,H16Q,-0.14 ± 0.11
12,H16E,-0.042 ± 0.11
13,H16N,-0.319 ± 0.2
14,H16T,0.09 ± 0.089
15,H16Y,-0.004 ± 0.24
16,H16M,-0.1 ± 0.1
17,H16W,0.017 ± 0.074
18,H16D,0.015 ± 0.099
19,H16S,-0.084 ± 0.074
20,H16A,-0.077 ± 0.074
21,H16C,0.072 ± 0.15
22,H16K,-0.28 ± 0.18
23,H16R,-0.05 ± 0.066
24,H16P,-0.23 ± 0.14

row,Variant,abundance fitness
1,H16G,-0.022 ± 0.059
2,H16L,-0.272 ± 0.092
3,F4G,0.044 ± 0.052
4,F4T,-0.126 ± 0.085
5,F4S,-0.169 ± 0.073
6,F4N,0.34 ± 0.12
7,F4P,-0.208 ± 0.18
8,F4H,0.114 ± 0.32
9,F4D,0.282 ± 0.077
10,F4I,0.125 ± 0.39
11,F4L,0.036 ± 0.077
12,F4C,0.659 ± 0.067
13,F4E,-0.134 ± 0.091
14,F4R,-0.19 ± 0.062
15,F4A,0.101 ± 0.065
16,F4M,0.64 ± 0.073
17,F4Y,-0.14 ± 0.33
18,F4K,-0.137 ± 0.17
19,C6W,-0.955 ± 0.2
20,C6Y,-0.23 ± 0.39
21,C6V,-1.08 ± 0.17
22,C6N,-0.317 ± 0.28
23,C6D,-0.718 ± 0.17
24,C6E,-1.02 ± 0.21

row,Variant,abundance fitness
1,C6F,-0.944 ± 0.43
2,C6G,-1.02 ± 0.14
3,C6A,-0.771 ± 0.19
4,C6S,-0.911 ± 0.23
5,C6L,-0.939 ± 0.24
6,C6T,0.403 ± 0.15
7,C6K,-0.368 ± 0.29
8,C6M,-1.12 ± 0.22
9,C6R,-1 ± 0.15
10,P3W,-0.243 ± 0.2
11,P3D,-0.521 ± 0.27
12,P3V,-0.057 ± 0.074
13,P3E,0.213 ± 0.098
14,P3T,-0.066 ± 0.19
15,P3G,0.22 ± 0.053
16,P3S,0.398 ± 0.077
17,P3R,0.121 ± 0.062
18,P3H,0.215 ± 0.11
19,P3A,0.313 ± 0.087
20,P3C,0.488 ± 0.42
21,P3K,-0.118 ± 0.16
22,P3I,0.284 ± 0.49
23,P3L,0.095 ± 0.085
24,Q8N,0.741 ± 0.14

row,Variant,abundance fitness
1,Q8A,0.821 ± 0.065
2,Q8S,0.839 ± 0.061
3,Q8P,-0.393 ± 0.12
4,Q8V,0.896 ± 0.052
5,Q8Y,0.428 ± 0.14
6,Q8L,0.723 ± 0.06
7,Q8K,0.788 ± 0.075
8,Q8C,0.506 ± 0.095
9,Q8G,0.934 ± 0.048
10,Q8W,0.557 ± 0.057
11,Q8M,0.657 ± 0.12
12,Q8H,0.58 ± 0.14
13,Q8T,0.864 ± 0.075
14,Q8E,0.849 ± 0.06
15,Q8R,0.843 ± 0.055
16,T11L,0.156 ± 0.086
17,T11Q,0.312 ± 0.069
18,T11R,0.1 ± 0.056
19,T11V,0.587 ± 0.071
20,T11C,0.183 ± 0.11
21,T11K,0.427 ± 0.099
22,T11D,0.066 ± 0.44
23,T11F,-0.306 ± 0.23
24,T11E,0.312 ± 0.064

row,Variant,abundance fitness
1,T11G,0.354 ± 0.05
2,T11S,0.058 ± 0.064
3,T11H,0.346 ± 0.22
4,T11W,-0.133 ± 0.072
5,T11P,-0.025 ± 0.076
6,T11M,0.436 ± 0.08
7,W17Y,0.557 ± 0.4
8,W17T,0.564 ± 0.2
9,W17D,0.285 ± 0.11
10,W17L,0.051 ± 0.088
11,W17I,0.013 ± 0.24
12,W17Q,0.523 ± 0.13
13,W17C,0.149 ± 0.093
14,W17K,0.387 ± 0.11
15,W17E,0.196 ± 0.11
16,W17A,-0.009 ± 0.07
17,W17H,0.009 ± 0.14
18,W17R,0.092 ± 0.061
19,W17P,-0.135 ± 0.17
20,W17S,0.127 ± 0.08
21,W17V,0.082 ± 0.069
22,V1M,0.212 ± 0.13
23,V1F,-0.17 ± 0.21
24,V1D,-0.002 ± 0.12

row,Variant,abundance fitness
1,V1T,-0.187 ± 0.36
2,V1I,-0.288 ± 0.24
3,V1A,-0.29 ± 0.086
4,V1R,-0.054 ± 0.12
5,V1K,0.195 ± 0.21
6,V1N,-0.178 ± 0.3
7,V1E,0.067 ± 0.13
8,V1S,-0.444 ± 0.2
9,V1G,0.024 ± 0.093
10,Q19V,0.159 ± 0.061
11,Q19S,-0.044 ± 0.12
12,Q19D,0.212 ± 0.15
13,Q19K,0.143 ± 0.089
14,Q19A,0.106 ± 0.066
15,Q19T,-0.346 ± 0.32
16,Q19C,0.103 ± 0.16
17,Q19M,0.026 ± 0.097
18,Q19E,0.163 ± 0.11
19,Q19N,0.136 ± 0.14
20,Q19R,-0.029 ± 0.069
21,Q19G,0.323 ± 0.052
22,Q19P,0.109 ± 0.13
23,K18R,-0.072 ± 0.078
